In one series the test system is biotinyl-Trp-oxazolone. The series is described as follows: self-aminoacylation, catalytic enhancement (BWO) (fold over background); higher = more active; k-Seq, kA / k0A0; sequences stand for … in GGGAAUGGAUCCACAUCUACGAAUUC…UUCACUGCAGACUUGACGAAGCUG
Summed up: (§1)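 Mutagenized RNA pools with a 21-nt variable region (0.43 μM) reacted with each biotinyl-aminoacyl-oxazolone at 2–1250 μM. Reactions ran in 50 μL HEPES/NaCl/KCl/MgCl2/CaCl2 buffer with 5% acetonitrile, pH 6.9–7.0, for 90 minutes at room temperature. Streptavidin-captured RNA was quantified by triplicate qPCR and Illumina sequencing, and per-sequence fraction reacted was fit to a pseudo-first-order model with 1000 bootstraps. Catalytic enhancement is median kA divided by the uncatalyzed rate, the low-activity peak of a bimodal Gaussian fit.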

In a further series the test system is biotinyl-Val-oxazolone. Briefly: self-aminoacylation, catalytic enhancement (BVO) (fold over background); higher = more active; k-Seq, kA / k0A0; sequences stand for … in GGGAAUGGAUCCACAUCUACGAAUUC…UUCACUGCAGACUUGACGAAGCUG
Summed up:
as §1

The next series deals with biotinyl-Met-oxazolone. Briefly: self-aminoacylation, catalytic enhancement (BMO) (fold over background); higher = more active; k-Seq, kA / k0A0; sequences stand for … in GGGAAUGGAUCCACAUCUACGAAUUC…UUCACUGCAGACUUGACGAAGCUG
Summed up: as §1

The subject of a further series is biotinyl-Leu-oxazolone. The series is described as follows: self-aminoacylation, catalytic enhancement (BLO) (fold over background); higher = more active; k-Seq, kA / k0A0; sequences stand for … in GGGAAUGGAUCCACAUCUACGAAUUC…UUCACUGCAGACUUGACGAAGCUG
In outline: as §1

The subject of a further series is biotinyl-Phe-oxazolone. The series is described as follows: self-aminoacylation, catalytic enhancement (BFO) (fold over background); higher = more active; k-Seq, kA / k0A0; sequences stand for … in GGGAAUGGAUCCACAUCUACGAAUUC…UUCACUGCAGACUUGACGAAGCUG
In outline:
as §1

A further series concerns biotinyl-Ile-oxazolone. The series is described as follows: self-aminoacylation, catalytic enhancement (BIO) (fold over background); higher = more active; k-Seq, kA / k0A0; sequences stand for … in GGGAAUGGAUCCACAUCUACGAAUUC…UUCACUGCAGACUUGACGAAGCUG
Summed up:
as §1

This sample holds only a part of the variants without activity.

Take “CCAUACUGCAAGCAAUCGGUC [Fam1B.1 aminoacylation ribozyme variant]”: the self-aminoacylation in the series with biotinyl-Trp-oxazolone turned out to be 0.938; with biotinyl-Val-oxazolone it was 1.14; in the series on biotinyl-Met-oxazolone, 1.15; in the series with biotinyl-Leu-oxazolone, 0.996; in the series on biotinyl-Phe-oxazolone it was 1.06; with biotinyl-Ile-oxazolone it was 1.14.

On to “AAGUUUACUAAUAGUCGCGAG [Fam3.1 aminoacylation ribozyme variant]”, for which the self-aminoacylation with biotinyl-Trp-oxazolone amounted to 1.54; with biotinyl-Val-oxazolone, 1.22; in the series with biotinyl-Met-oxazolone, 1.59; in the series on biotinyl-Leu-oxazolone, 1.91; with biotinyl-Phe-oxazolone, 2.41; with biotinyl-Ile-oxazolone, 1.83.

Take “CCACACUUUCAGCAAUCGGUC [Fam1B.1 aminoacylation ribozyme variant]”: the self-aminoacylation stood at 0.664 with biotinyl-Trp-oxazolone; 1.09 with biotinyl-Val-oxazolone; 0.799 with biotinyl-Met-oxazolone; 0.966 in the series with biotinyl-Leu-oxazolone; 1.04 with biotinyl-Phe-oxazolone; 1.01 in the series with biotinyl-Ile-oxazolone.

For the sequence “AUUACACUGGUCAGCGAGUGA [Fam2.1 aminoacylation ribozyme variant]”, the self-aminoacylation was found to be 5.83 in the series with biotinyl-Trp-oxazolone; 2.58 in the series on biotinyl-Val-oxazolone; 4.36 in the series on biotinyl-Met-oxazolone; 5.37 in the series with biotinyl-Leu-oxazolone; 16.9 in the series on biotinyl-Phe-oxazolone; 3.4 in the series on biotinyl-Ile-oxazolone.

“CCAGAGUUCAAGCAAUCGGUC [Fam1B.1 aminoacylation ribozyme variant]”: the self-aminoacylation in the series on biotinyl-Trp-oxazolone is 1.72; with biotinyl-Val-oxazolone, 1.2; in the series on biotinyl-Met-oxazolone, 1.21; in the series with biotinyl-Leu-oxazolone it was 1.36; with biotinyl-Phe-oxazolone it was 1.42; in the series with biotinyl-Ile-oxazolone, 1.36.

For the sequence “CUACUUCAUACAAUCGGUGUG [Fam1A.1 aminoacylation ribozyme variant]”, the self-aminoacylation in the series on biotinyl-Trp-oxazolone was determined as 0.545; with biotinyl-Val-oxazolone, 0.956; in the series with biotinyl-Met-oxazolone, 0.959; in the series with biotinyl-Leu-oxazolone it was 1.14; in the series with biotinyl-Phe-oxazolone it was 0.976; in the series with biotinyl-Ile-oxazolone, 0.839.

Turning to “AAGUUUGCUAAUAGUCGCAUC [Fam3.1 aminoacylation ribozyme variant]”, the self-aminoacylation with biotinyl-Trp-oxazolone came to 0.681; in the series on biotinyl-Val-oxazolone, 0.706; with biotinyl-Met-oxazolone, 0.649; with biotinyl-Leu-oxazolone, 0.61; with biotinyl-Phe-oxazolone, 1.53; with biotinyl-Ile-oxazolone, 0.778.

In the case of “CUAGCUCAAACAAUCGGUCUG [Fam1A.1 aminoacylation ribozyme variant]”, the self-aminoacylation in the series on biotinyl-Trp-oxazolone worked out at 3.09; with biotinyl-Val-oxazolone, 0.914; in the series on biotinyl-Met-oxazolone, 0.776; with biotinyl-Leu-oxazolone it was 0.742; in the series on biotinyl-Phe-oxazolone, 4.58; in the series with biotinyl-Ile-oxazolone it was 0.817.

On to “AGUACCCUGGUCAUCGAGUGG [Fam2.1 aminoacylation ribozyme variant]”, for which the self-aminoacylation with biotinyl-Trp-oxazolone was determined as 4.19; with biotinyl-Val-oxazolone, 2.65; with biotinyl-Met-oxazolone, 5.15; in the series with biotinyl-Leu-oxazolone, 4.23; with biotinyl-Phe-oxazolone, 6.94; with biotinyl-Ile-oxazolone it was 2.26.

Turning to “AUUCACCUAUGUCAUCGGGGG [Fam2.2 aminoacylation ribozyme variant]”, the self-aminoacylation was 1.58 with biotinyl-Trp-oxazolone; 1.38 in the series on biotinyl-Val-oxazolone; 2 in the series with biotinyl-Met-oxazolone; 1.93 in the series with biotinyl-Leu-oxazolone; 6.23 with biotinyl-Phe-oxazolone; 1.5 in the series with biotinyl-Ile-oxazolone.

“CUACUUCAAACAAUCGCGCUG [Fam1A.1 aminoacylation ribozyme variant]”: the self-aminoacylation with biotinyl-Trp-oxazolone amounted to 1.1; in the series on biotinyl-Val-oxazolone, 1.35; in the series with biotinyl-Met-oxazolone it was 1.52; in the series with biotinyl-Leu-oxazolone, 1.88; in the series with biotinyl-Phe-oxazolone, 1.59; in the series on biotinyl-Ile-oxazolone it was 1.47.

For “CCACACUUCCGGCAAUCGGUC [Fam1B.1 aminoacylation ribozyme variant]”, the self-aminoacylation was 2.13 in the series with biotinyl-Trp-oxazolone; 2.12 with biotinyl-Val-oxazolone; 2.02 with biotinyl-Met-oxazolone; 1.59 in the series with biotinyl-Leu-oxazolone; 5.25 with biotinyl-Phe-oxazolone; 1.72 in the series with biotinyl-Ile-oxazolone.

Turning to “CUUACCCUGGUCAUCGAAUGA [Fam2.1 aminoacylation ribozyme variant]”, the self-aminoacylation with biotinyl-Trp-oxazolone is 0.668; with biotinyl-Val-oxazolone it was 0.985; in the series with biotinyl-Met-oxazolone, 0.915; in the series on biotinyl-Leu-oxazolone, 0.937; in the series on biotinyl-Phe-oxazolone, 1.02; in the series on biotinyl-Ile-oxazolone, 1.01.

On to “AUUACCCUGGUAAUCGAGUGG [Fam2.1 aminoacylation ribozyme variant]”, for which the self-aminoacylation with biotinyl-Trp-oxazolone was 2.9; with biotinyl-Val-oxazolone it was 1.31; with biotinyl-Met-oxazolone, 2.85; with biotinyl-Leu-oxazolone, 2.79; in the series on biotinyl-Phe-oxazolone, 2.83; in the series on biotinyl-Ile-oxazolone it was 1.38.

Regarding “AUUCUUCAAACAAUCGGUCUG [Fam1A.1 aminoacylation ribozyme variant]”, the self-aminoacylation in the series with biotinyl-Trp-oxazolone is 1.27; in the series with biotinyl-Val-oxazolone it was 0.663; in the series with biotinyl-Met-oxazolone, 0.63; in the series on biotinyl-Leu-oxazolone it was 0.682; in the series with biotinyl-Phe-oxazolone, 1.66; in the series on biotinyl-Ile-oxazolone it was 0.672.

Take “CUACUCCAAACAAUUGGUCUG [Fam1A.1 aminoacylation ribozyme variant]”: the self-aminoacylation in the series on biotinyl-Trp-oxazolone amounted to 0.642; in the series on biotinyl-Val-oxazolone, 1.03; in the series on biotinyl-Met-oxazolone, 1.09; in the series with biotinyl-Leu-oxazolone, 1.02; in the series with biotinyl-Phe-oxazolone it was 0.67; in the series with biotinyl-Ile-oxazolone, 1.13.

As for “CUACUACAAACUAUCGGUCUG [Fam1A.1 aminoacylation ribozyme variant]”, the self-aminoacylation in the series on biotinyl-Trp-oxazolone worked out at 0.717; in the series on biotinyl-Val-oxazolone, 0.839; with biotinyl-Met-oxazolone it was 0.949; in the series on biotinyl-Leu-oxazolone it was 0.713; with biotinyl-Phe-oxazolone, 0.752; in the series with biotinyl-Ile-oxazolone it was 0.869.

For the sequence “UUUACCGUGGUCAUCGAGUGA [Fam2.1 aminoacylation ribozyme variant]”, the self-aminoacylation is 7.07 in the series on biotinyl-Trp-oxazolone; 3.63 in the series with biotinyl-Val-oxazolone; 5.63 with biotinyl-Met-oxazolone; 5.18 with biotinyl-Leu-oxazolone; 17.7 in the series with biotinyl-Phe-oxazolone; 3.2 with biotinyl-Ile-oxazolone.

Turning to “AUUACCCUGGUCAUCUGGUGA [Fam2.1 aminoacylation ribozyme variant]”, the self-aminoacylation in the series on biotinyl-Trp-oxazolone worked out at 4.53; in the series on biotinyl-Val-oxazolone it was 2.72; with biotinyl-Met-oxazolone it was 5; with biotinyl-Leu-oxazolone it was 5.37; in the series on biotinyl-Phe-oxazolone, 31.1; with biotinyl-Ile-oxazolone, 3.08.

Take “AUUCACCUGGGUCAUCGGGUG [Fam2.2 aminoacylation ribozyme variant]”: the self-aminoacylation worked out at 18.2 in the series on biotinyl-Trp-oxazolone; 10.4 with biotinyl-Val-oxazolone; 20.2 with biotinyl-Met-oxazolone; 23.2 in the series on biotinyl-Leu-oxazolone; 67.8 with biotinyl-Phe-oxazolone; 8.95 in the series with biotinyl-Ile-oxazolone.

For the sequence “AUUACCCUGGUCAUCGGGAGA [Fam2.1 aminoacylation ribozyme variant]”, the self-aminoacylation is 5.01 in the series with biotinyl-Trp-oxazolone; 2.41 in the series with biotinyl-Val-oxazolone; 2.97 with biotinyl-Met-oxazolone; 4.4 in the series with biotinyl-Leu-oxazolone; 2.87 with biotinyl-Phe-oxazolone; 1.71 with biotinyl-Ile-oxazolone.

On to “AUUACCCUGCUCAUCGAGAGA [Fam2.1 aminoacylation ribozyme variant]”, for which the self-aminoacylation was found to be 0.698 in the series on biotinyl-Trp-oxazolone; 0.975 with biotinyl-Val-oxazolone; 0.805 with biotinyl-Met-oxazolone; 0.702 with biotinyl-Leu-oxazolone; 0.77 with biotinyl-Phe-oxazolone; 0.834 with biotinyl-Ile-oxazolone.

Take “CUUACCCUGGUCAUCGAGUGU [Fam2.1 aminoacylation ribozyme variant]”: the self-aminoacylation in the series on biotinyl-Trp-oxazolone amounted to 25.6; with biotinyl-Val-oxazolone, 9.84; with biotinyl-Met-oxazolone, 26.4; in the series with biotinyl-Leu-oxazolone, 24.6; in the series with biotinyl-Phe-oxazolone, 102; with biotinyl-Ile-oxazolone, 8.72.

For “CUAUUUCAAACAAUCGGUCUG [Fam1A.1 aminoacylation ribozyme variant]”, the self-aminoacylation with biotinyl-Trp-oxazolone was 4.39; in the series on biotinyl-Val-oxazolone, 0.781; in the series on biotinyl-Met-oxazolone, 0.789; in the series on biotinyl-Leu-oxazolone it was 0.838; with biotinyl-Phe-oxazolone, 8.5; with biotinyl-Ile-oxazolone, 0.819.

Turning to “AUUACCAUGGUCAUCGCGUGA [Fam2.1 aminoacylation ribozyme variant]”, the self-aminoacylation in the series on biotinyl-Trp-oxazolone was 26.7; in the series with biotinyl-Val-oxazolone, 12.1; in the series with biotinyl-Met-oxazolone, 24.6; with biotinyl-Leu-oxazolone it was 25.2; with biotinyl-Phe-oxazolone, 189; with biotinyl-Ile-oxazolone, 10.3.

These data come from the supplement of paper PMC9233669.
